Experimental data reported in IntAct's records for PubMed 19966308.

B1: Aquaporin-2 (Mus musculus), P56402 (parent)
chain: MWELRSIAFSRAVLAEFLATLLFVFFGLGSALQWASSPPSVLQIAVAFGLGIGTLVQALGHVSGAHINPAVTVACLVGCHVSFLRAAFYVAAQLLGAVAGAAILHEITPVEIRGDLAVNALHNNATAGQAVTVELFLTMQLVLCIFASTDERRSDNLGSPALSIGFSVTLGHLLGIYFTGCSMNPARSLAPAVVTGKFDDHWVFWIGPLVGAVIGSLLYNYLLFPSTKSLQERLAVLKGLEPDTDWEEREVRRRQSVELHSPQSLPRGSKA

Variants of: B1
Settings: with anxa2_canlf ANXA2, Q6TEQ7
Sequence of anxa2_canlf ANXA2, Q6TEQ7 (Q6TEQ7 whole entry): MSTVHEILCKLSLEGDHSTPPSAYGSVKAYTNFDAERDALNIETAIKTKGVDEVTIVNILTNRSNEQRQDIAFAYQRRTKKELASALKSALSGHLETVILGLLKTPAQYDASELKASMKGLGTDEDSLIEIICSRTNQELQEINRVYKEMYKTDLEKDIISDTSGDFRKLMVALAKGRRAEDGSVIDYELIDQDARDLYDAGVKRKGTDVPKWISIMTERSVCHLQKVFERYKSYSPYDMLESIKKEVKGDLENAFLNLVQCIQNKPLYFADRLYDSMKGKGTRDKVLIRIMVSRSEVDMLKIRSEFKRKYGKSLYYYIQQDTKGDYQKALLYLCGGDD
MWELRSIAFSRAVLAEFLATLLFVFFGLGSALQWASSPPSVLQIAVAFGLGIGTLVQALGHVSGAHINPAVTVACLVGCHVSFLRAAFYVAAQLLGAVAGAAILHEITPVEIRGDLAVNALHNNATAGQAVTVELFLTMQLVLCIFASTDERRSDNLGSPALSIGFSVTLGHLLGIYFTGCSMNPARSLAPAVVTGKFDDHWVFWIGPLVGAVIGSLLYNYLLFPSTKSLQERLAVLKGLEPDTDWEEREVRRRQAVELHSPQSLPRGSKA [S256A] was tested, and the “effect of a mutation on the interaction” value was “increasing interaction”.

Variants of: B1
Settings: with hsp71_canlf HSPA1, Q7YQC6
Sequence of hsp71_canlf HSPA1, Q7YQC6 (Q7YQC6 whole entry): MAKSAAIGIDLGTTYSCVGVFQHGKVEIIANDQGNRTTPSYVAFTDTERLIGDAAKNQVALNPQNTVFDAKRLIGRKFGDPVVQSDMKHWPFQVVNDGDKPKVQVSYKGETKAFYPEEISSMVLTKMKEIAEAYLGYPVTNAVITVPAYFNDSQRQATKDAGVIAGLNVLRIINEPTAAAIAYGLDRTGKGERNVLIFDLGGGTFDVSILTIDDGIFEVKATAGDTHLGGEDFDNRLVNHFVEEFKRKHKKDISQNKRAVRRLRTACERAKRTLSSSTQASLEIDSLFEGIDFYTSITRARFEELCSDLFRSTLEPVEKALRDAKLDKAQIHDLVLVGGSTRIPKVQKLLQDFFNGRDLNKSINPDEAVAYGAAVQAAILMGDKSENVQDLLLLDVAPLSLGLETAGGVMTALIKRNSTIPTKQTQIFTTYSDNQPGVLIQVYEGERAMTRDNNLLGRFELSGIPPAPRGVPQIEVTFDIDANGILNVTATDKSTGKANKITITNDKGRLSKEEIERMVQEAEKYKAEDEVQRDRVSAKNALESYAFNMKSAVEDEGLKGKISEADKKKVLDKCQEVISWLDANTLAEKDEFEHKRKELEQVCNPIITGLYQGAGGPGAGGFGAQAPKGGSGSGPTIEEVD
In the case of MWELRSIAFSRAVLAEFLATLLFVFFGLGSALQWASSPPSVLQIAVAFGLGIGTLVQALGHVSGAHINPAVTVACLVGCHVSFLRAAFYVAAQLLGAVAGAAILHEITPVEIRGDLAVNALHNNATAGQAVTVELFLTMQLVLCIFASTDERRSDNLGSPALSIGFSVTLGHLLGIYFTGCSMNPARSLAPAVVTGKFDDHWVFWIGPLVGAVIGSLLYNYLLFPSTKSLQERLAVLKGLEPDTDWEEREVRRRQSVELHSPQSLPRGDKA [S269D], the “effect of a mutation on the interaction” value is reported as “decreasing interaction”.
